Here are results for three substances from article PMC6762143.

Assay [1] addresses FRET-PGK1 (PGK1 labeled with mEGFP at the N-terminus and mCherry at the C-terminus) (yeast) (UniProt P00560).
Assay [2] concerns the target mEGFP (free), expressed in U-2 OS cells. The assay can be described thus: FRET or BRET; in living U-2 OS cells co-transfected with both proteins; only cells with about 1:1 expression; epifluorescence microscope, infrared laser temperature ramp 19-46°C; average of 15-30 cells. On the technique in general: In BRET a luciferase serves as donor, and the signal depends on an acceptor being close.

Assay [3] has as its target ePGK3, expressed in U-2 OS cells (yeast) (UniProt P00560). Described as above.
Assay [4] concerns the target ePGK2, expressed in U-2 OS cells (yeast) (UniProt P00560). The assay is described as above.

“Hsp70 (as used in the stopped flow PGK refolding assay) (from UniProt P0DMV8 1-641) (natural protein)” returned a folding efficiency of GuHCl-denatured efPGK1 in stopped flow refolding (intramolecular FRET) with 100 μM Hsp70 and 22.5 μM Hsp40, 2 mM ATP; 47% without Hsp70 in assay [1] of 57%.

Consider “mCherry (free), expressed in U-2 OS cells”, for which the E FRET change in assay [2] came to 2%.

On to “mHsp70 (Hsp70 labeled by mCherry at the C-terminus), expressed in U-2 OS cells (from UniProt P0DMV8 1-641) (natural protein)”, for which the T0 (binding temperature midpoint) in assay [3] was found to be 37.1 °C; in assay [4], 39.1 °C. Also, the overall E FRET change in assay [3] and in assay [4] was 8% each time.
